Laboratory results from patent publication US20120316071A1 (published 2012).
Where a chain is given by its changes, count along the chain named. Names may count otherwise. One block for each binder: values may come before it.

Key:
[1] = target: T1, rHuman Erythropoietin R/Fc Chimera, CF (R&D Systems Cat#963-ER) (human, UniProt P19235 25-250); assay: ECL multispot (MSD), 20 nM Fab;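 note: purified Fab binding to antigens on multispot plates, read by electrochemiluminescence with a TAG-labelled detection antibody, 1 h Fab incubation at 20 °C, signal expressed relative to each well's blank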
T1 construct: Bought recombinant protein; also called EPO R; EPO R/Fc; Fc part of the bought chimera not given
T1 sequence (looked up): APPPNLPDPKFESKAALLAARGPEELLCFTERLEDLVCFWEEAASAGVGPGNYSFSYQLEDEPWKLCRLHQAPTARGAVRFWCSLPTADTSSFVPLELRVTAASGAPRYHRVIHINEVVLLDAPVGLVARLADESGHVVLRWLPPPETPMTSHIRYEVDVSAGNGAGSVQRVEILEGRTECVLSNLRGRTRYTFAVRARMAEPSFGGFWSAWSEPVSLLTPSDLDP

[2] = target: T2, rHuman EGF R/Fc Chimera, CF (R&D Systems Cat#344-ER) (human, UniProt P00533 25-645); assay: ECL multispot (MSD), 20 nM Fab;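 note: purified Fab binding to antigens on multispot plates, read by electrochemiluminescence with a TAG-labelled detection antibody, 1 h Fab incubation at 20 °C, signal expressed relative to each well's blank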
T2 construct: Bought recombinant protein; also called epidermal growth factor receptor; Fc part of the bought chimera not given

[3] = target: T3, rHuman CD44/Fc Chimera, CF (R&D Systems Cat#3660-CD) (human, UniProt P16070 21-220); assay: ECL multispot (MSD), 20 nM Fab;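 note: purified Fab binding to antigens on multispot plates, read by electrochemiluminescence with a TAG-labelled detection antibody, 1 h Fab incubation at 20 °C, signal expressed relative to each well's blank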
T3 construct: Bought recombinant protein; Fc part of the bought chimera not given

[4] = target: T4, rHuman Notch-1/Fc Chimera, CF (R&D Systems Cat#3647-TK) (human, UniProt P46531 19-526); assay: ECL multispot (MSD), 20 nM Fab;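 note: purified Fab binding to antigens on multispot plates, read by electrochemiluminescence with a TAG-labelled detection antibody, 1 h Fab incubation at 20 °C, signal expressed relative to each well's blank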
T4 construct: Bought recombinant protein; Fc part of the bought chimera not given

[5] = target: T5, Recombinant Human DLL4 (R&D Systems Cat#1506-D4/CF) (human, UniProt Q9NR61 27-524); assay: ECL multispot (MSD), 20 nM Fab
T5 construct: Bought recombinant protein; also called delta-like protein 4; rHuman DLL4

[6] = target: T6, rHuman IGF-1 sR, (IGF-1 sR), CF (R&D Systems Cat#391-GR) (human, UniProt P08069 31-932); assay: ECL multispot (MSD), 20 nM Fab
T6 construct: Bought recombinant soluble receptor; also called insulin-like growth factor-1 soluble receptor

[7] = target: T7, rHuman P-Cadherin/Fc Chimera, CF (R&D Systems Cat#861-PC) (human, UniProt P22223 108-654); assay: ECL multispot (MSD), 20 nM Fab
T7 construct: Bought recombinant protein; Fc part of the bought chimera not given

[8] = target: T8, rHuman ErbB2/Fc Chimera, CF (R&D Systems Cat#1129-ER) (human, UniProt P04626 23-652); assay: ECL multispot (MSD), 20 nM Fab
T8 construct: Bought recombinant protein; also called human epidermal growth factor 2 receptor; Fc part of the bought chimera not given

[9] = target: T9, Recombinant Human DLL4 (R&D Systems Cat#1506-D4/CF) (human, UniProt Q9NR61 27-524); assay: SPR
T9 construct: bought recombinant protein; also called rHuman DLL4; delta-like protein 4

[10] = target: T10, full-length human DLL4 expressed on the surface of CHO cells (human, UniProt Q9NR61 26-685); assay: competition, flow cytometry; 250 nM biotinylated Notch-Fc as competitor on CHO-DLL4 cells, streptavidin-PE
T10 construct: also called CHO-DLL4; DLL4-expressing CHO cells

[11] = target: T11, Recombinant Human DLL4 (R&D Systems Cat#1506-D4/CF) (human, UniProt Q9NR61 27-524); assay: ELISA, DLL4 coated on plate, Fab at 100 nM, absorbance at 450 nm
T11 construct: also called delta-like protein 4; rHuman DLL4

B1: Fab VH3-23_IGHD2-21*01>3_IGHJ6*01 H100E/S108P/Y113G (EPG) Y109D & V2-13_IGLJ2*01 (Fab, V domains shown)
VH: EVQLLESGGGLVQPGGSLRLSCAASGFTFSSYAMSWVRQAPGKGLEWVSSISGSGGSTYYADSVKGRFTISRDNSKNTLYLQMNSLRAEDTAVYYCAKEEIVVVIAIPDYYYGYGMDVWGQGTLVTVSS
VL: SSELTQDPAVSVALGQTVRITCQGDSLRSYYASWYQQKPGQAPVLVIYGKNNRPSGIPDRFSGSSSGNTASLTITGAQAEDEADYYCNSRDSSGNHLVVFGGGTKLTVL
notes: Fab; NNK mutant of the EPG heavy chain; CH1 (tags) and lambda CL come from the vectors
ECL signal ratio (column head gives no unit) [1]: 2
ECL signal ratio (column head gives no unit) [2]: 1.4
ECL signal ratio (column head gives no unit) [3]: 1
ECL signal ratio (column head gives no unit) [4]: 1.3
ECL signal ratio (column head gives no unit) [5]: 1.4
ECL signal ratio (column head gives no unit) [6]: 1.4
ECL signal ratio (column head gives no unit) [7]: 1.8
ECL signal ratio (column head gives no unit) [8]: 1.3

B2: Fab VH3-23_IGHD2-21*01>3_IGHJ6*01 H100E/S108P/Y113G (EPG) Y109L & V2-13_IGLJ2*01 (Fab, V domains shown)
VH: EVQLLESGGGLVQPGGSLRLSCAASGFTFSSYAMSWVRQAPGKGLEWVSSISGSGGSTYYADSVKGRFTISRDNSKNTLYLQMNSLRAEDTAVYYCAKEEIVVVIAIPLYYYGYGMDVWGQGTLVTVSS
VL: B1 VL
notes: as for B1
ECL signal ratio (column head gives no unit) [1]: 22.1
ECL signal ratio (column head gives no unit) [3]: 1.6
ECL signal ratio (column head gives no unit) [4]: 1.9
ECL signal ratio (column head gives no unit) [5]: 2
ECL signal ratio (column head gives no unit) [6]: 1.7
ECL signal ratio (column head gives no unit) [7]: 4

B3: Fab VH3-23_IGHD2-21*01>3_IGHJ6*01 H100E/S108P/Y113G (EPG) Y109Q & V2-13_IGLJ2*01 (Fab, V domains shown)
VH: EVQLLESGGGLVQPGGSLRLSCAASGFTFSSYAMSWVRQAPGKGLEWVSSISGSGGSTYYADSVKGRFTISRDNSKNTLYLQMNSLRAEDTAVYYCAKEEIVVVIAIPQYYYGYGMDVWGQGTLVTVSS
VL: B1 VL
notes: as for B1
ECL signal ratio (column head gives no unit) [1]: 3.1
ECL signal ratio (column head gives no unit) [2]: 1.7
ECL signal ratio (column head gives no unit) [3]: 1.3
ECL signal ratio (column head gives no unit) [4]: 1.3
ECL signal ratio (column head gives no unit) [5]: 1.2
ECL signal ratio (column head gives no unit) [6]: 1.1
ECL signal ratio (column head gives no unit) [7]: 2.2
ECL signal ratio (column head gives no unit) [8]: 1.3

B4: Fab VH3-23_IGHD2-21*01>3_IGHJ6*01 H100E/S108P/Y113G (EPG) Y109H & V2-13_IGLJ2*01 (Fab, V domains shown)
VH: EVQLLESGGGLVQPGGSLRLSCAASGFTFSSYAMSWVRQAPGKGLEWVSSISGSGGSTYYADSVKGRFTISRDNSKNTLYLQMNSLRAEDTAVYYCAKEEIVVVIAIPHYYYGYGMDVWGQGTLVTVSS
VL: B1 VL
notes: as for B1
ECL signal ratio (column head gives no unit) [1]: 18.3
ECL signal ratio (column head gives no unit) [2]: 1.4
ECL signal ratio (column head gives no unit) [3]: 1.1
ECL signal ratio (column head gives no unit) [4]: 1.2
ECL signal ratio (column head gives no unit) [5]: 1.4
ECL signal ratio (column head gives no unit) [6]: 1.2
ECL signal ratio (column head gives no unit) [7]: 3.9
ECL signal ratio (column head gives no unit) [8]: 1.7

More lines, now with the values ahead:

ECL signal ratio (column head gives no unit) [1]: 6
ECL signal ratio (column head gives no unit) [2]: 1.4
ECL signal ratio (column head gives no unit) [3]: 1.1
ECL signal ratio (column head gives no unit) [4]: 1.7
ECL signal ratio (column head gives no unit) [5]: 1.5
ECL signal ratio (column head gives no unit) [6]: 1.3
ECL signal ratio (column head gives no unit) [7]: 2.1
ECL signal ratio (column head gives no unit) [8]: 1.7
B5: Fab VH3-23_IGHD2-21*01>3_IGHJ6*01 H100E/S108P/Y113G (EPG) Y109T & V2-13_IGLJ2*01 (Fab, V domains shown)
VH: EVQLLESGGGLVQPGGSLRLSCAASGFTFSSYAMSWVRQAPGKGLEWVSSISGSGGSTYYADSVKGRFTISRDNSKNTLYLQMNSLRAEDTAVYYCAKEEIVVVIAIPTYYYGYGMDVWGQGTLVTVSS
VL: B1 VL
notes: as for B1

fold binding affinity against the parental Fab [9]: 130 fold
B6: Fab VH5-51_IGHD5-18*01>3_IGHJ4*01 G100K/G104T/G24T/S28R/G35V (KT TRV) & V3-4_IGLJ1*01 (Fab, V domains shown)
VH: EVQLVQSGAEVKKPGESLKISCKTSGYRFTSYWIVWVRQMPGKGLEWMGIIYPGDSDTRYSPSFQGQVTISADKSISTAYLQWSSLKASDTAMYYCARRKYSYTYDYFDYWGQGTLVTVSS
VL: QTVVTQEPSFSVSPGGTVTLTCGLSSGSVSTSYYPSWYQQTPGQAPRTLIYSTNTRSSGVPDRFSGSILGNKAALTITGAQADDESDYYCVLYMGSGISYVFGTGTKVTVL
notes: Fab; also called H:KT TRV & L:wt; H:KT TRV & V3-4_IGLJ1*01

fold binding affinity against the parental Fab [9]: 1000 fold
B7: Fab VH5-51_IGHD5-18*01>3_IGHJ4*01 G100K/G104T G24T/S28R/G35V (H:KT TRV) & V3-4_IGLJ1*01 V91L/S96P S52G (L:LP S52G) (Fab, V domains shown)
VH: B6 VH
VL: B6 VL with S52G, V91L, S96P
notes: Fab; also called H:KT TRV & L:LP S52G

signal of biotinylated Notch-Fc bound to CHO-DLL4 cells at 2 nM Fab (read-out not given) [10]: 448
signal of biotinylated Notch-Fc bound to CHO-DLL4 cells at 10 nM Fab (read-out not given) [10]: 244
B8: Fab VH5-51_IGHD5-18*01>3_IGHJ4*01 G100K/G104T G24T/S28R/G35V & V3-4_IGLJ1*01 (Fab, V domains shown)
VH: B6 VH
VL: B6 VL
notes: Fab; Constant parts come from Plasmid A (CH1, His6, Flag) and Plasmid E (lambda CL); also called H:KT TRV & L:wt; H:KT TRV & V3-4_IGLJ1*01

ELISA Signal-blank (100 nM Fab) [11]: 0.452
B9: Fab VH5-51_IGHD5-18*01>3_IGHJ4*01 G100K/G104T G24T/S28R/G35V (H:KT TRV) & V3-4_IGLJ1*01 S96V (Fab, V domains shown)
VH: B6 VH
VL: B6 VL with S96V
notes: Tested as Fab expressed in E. coli

ELISA Signal-blank (100 nM Fab) [11]: 0.813
B10: Fab VH5-51_IGHD5-18*01>3_IGHJ4*01 G100K/G104T G24T/S28R/G35V (H:KT TRV) & V3-4_IGLJ1*01 S96P (Fab, V domains shown)
VH: B6 VH
VL: B6 VL with S96P
notes: as for B9
